Assays:
[1] = target: T1, cynomolgus TCRαβ-zipper protein (cynomolgus); assay: SPR Biacore 8K+, multi-cycle kinetics, TCR-zipper immobilized
T1 construct: also called cyTCR(AEA41865)-zipper; CynoTCRαβ-zipper
T1 TCR alpha: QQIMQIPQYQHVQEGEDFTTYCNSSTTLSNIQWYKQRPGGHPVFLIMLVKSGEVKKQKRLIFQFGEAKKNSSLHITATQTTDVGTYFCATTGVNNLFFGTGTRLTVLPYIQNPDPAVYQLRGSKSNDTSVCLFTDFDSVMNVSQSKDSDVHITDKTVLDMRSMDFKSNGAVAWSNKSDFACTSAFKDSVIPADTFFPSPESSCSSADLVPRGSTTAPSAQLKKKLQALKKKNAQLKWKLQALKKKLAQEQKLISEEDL
T1 TCR beta: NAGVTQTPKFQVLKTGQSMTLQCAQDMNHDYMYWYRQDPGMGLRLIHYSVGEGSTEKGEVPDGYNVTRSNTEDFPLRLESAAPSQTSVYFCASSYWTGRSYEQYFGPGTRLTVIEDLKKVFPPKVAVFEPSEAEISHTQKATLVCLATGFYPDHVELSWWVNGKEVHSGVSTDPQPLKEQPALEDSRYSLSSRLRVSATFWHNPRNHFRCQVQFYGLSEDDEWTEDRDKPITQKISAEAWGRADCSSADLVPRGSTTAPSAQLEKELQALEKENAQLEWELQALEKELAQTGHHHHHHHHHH

[2] = target: T2, human T cell receptor (TCRαβ) on primary human T cells (human); assay: cell-based or functional assay
T2 sequence (P0DTU3 134-275, chain 1 of 2): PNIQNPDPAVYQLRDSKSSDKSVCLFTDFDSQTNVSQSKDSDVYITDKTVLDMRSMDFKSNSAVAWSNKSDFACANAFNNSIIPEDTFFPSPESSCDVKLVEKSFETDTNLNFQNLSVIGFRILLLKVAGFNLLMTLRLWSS
T2 sequence (P01850 other isoform, or with tags, fused parts or gaps, chain 2 of 2, further chain): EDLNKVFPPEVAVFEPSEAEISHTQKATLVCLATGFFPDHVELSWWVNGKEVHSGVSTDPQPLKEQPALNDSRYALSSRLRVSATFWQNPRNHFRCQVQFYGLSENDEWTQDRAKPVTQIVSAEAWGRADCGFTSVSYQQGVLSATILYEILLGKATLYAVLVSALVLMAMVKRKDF

[3] = target: T3, cynomolgus T cell receptor (TCRαβ) on primary cynomolgus T cells (cynomolgus); assay: cell-based or functional assay
T3 V domain 1: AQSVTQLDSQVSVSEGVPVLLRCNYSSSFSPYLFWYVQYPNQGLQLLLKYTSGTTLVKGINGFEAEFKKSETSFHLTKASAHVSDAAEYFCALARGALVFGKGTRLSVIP
T3 V domain 2: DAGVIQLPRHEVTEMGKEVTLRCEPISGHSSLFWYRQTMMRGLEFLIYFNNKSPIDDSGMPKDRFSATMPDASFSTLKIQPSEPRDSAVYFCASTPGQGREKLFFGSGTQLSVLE

[4] = target: T2, human T cell receptor (TCRαβ) on …; assay: cell-based or functional assay; remark: listed apart in the source

B1: T017001028 (bispecific antibody)
chain: EVQLVESGGGVVQPGGSLRLSCAASGTTLDYYVIGWFRQAPGKEREGVSCISSSDGYTYYADSVKGRFTISRDNAKNTVYLQMNSLRPEDTALYYCATDPYYSSCHPFFADYEYDYWGQGTLVTVSSGGGGSGGGSEVQLVESGGGVVQPGGSLRLSCVASGYVHKINFYGWYRQAPGKEREKVAHISIGDQTDYAESAKGRFTISRDESKNTVYLQMNSLRPEDTAAYYCRALSRIYPYDYWGQGTLVTVSSGGGGSGGGSEVQLVESGGGVVQPGGSLRLSCAASGFTFRSFGMSWVRQAPGKGPEWVSSISGSGSDTLYADSVKGRFTISRDNSKNTLYLQMNSLRPEDTALYYCTIGGSLSRSSQGTLVTVSS
B1 was tested, and the Kd [1] was 400 nM, the “EC50 (M), human T cell mediated MOLM-13 cell killing, Donor #1” value (from here on “EC50 (M) … Donor #1”) [2] was 6.7e-10 M and the “EC50 (M), human T cell mediated MOLM-13 cell killing, Donor #2” value (from here on “EC50 (M) … Donor #2”) [2] was 3.2e-09 M.

B2: T017001030 (bispecific antibody)
chain: EVQLVESGGGVVQPGGSLRLSCAASGTTLDYYVIGWFRQAPGKEREGVSCISSSDGYTYYADSVKGRFTISRDNAKNTVYLQMNSLRPEDTALYYCATDPYYSSCHPFFADYEYDYWGQGTLVTVSSGGGGSGGGSEVQLVESGGGVVQPGGSLRLSCVASGYVHKINFYGWYRQAPGKEREKVAHISIGDQTDYAESAKGRFTISRDESKNTVYLQMNSLRPEDTAAYYCRALSRISPYDYWGQGTLVTVSSGGGGSGGGSEVQLVESGGGVVQPGGSLRLSCAASGFTFRSFGMSWVRQAPGKGPEWVSSISGSGSDTLYADSVKGRFTISRDNSKNTLYLQMNSLRPEDTALYYCTIGGSLSRSSQGTLVTVSS
For B2, the Kd [1] was 3600 nM and the “EC50 (M) … Donor #1” value [2] was 5.8e-09 M.

B3: T017001027 (bispecific antibody)
chain: EVQLVESGGGVVQPGGSLRLSCAASGTTLDYYVIGWFRQAPGKEREGVSCISSSDGYTYYADSVKGRFTISRDNAKNTVYLQMNSLRPEDTALYYCATDPYYSSCHPFFADYEYDYWGQGTLVTVSSGGGGSGGGSEVQLVESGGGVVQPGGSLRLSCVASGYVHKINFYGWYRQAPGKEREKVAHISIGDQTDYADSAKGRFTISRDESKNTVYLQMNSLRPEDTAAYYCRALSRIWPYDYWGQGTLVTVSSGGGGSGGGSEVQLVESGGGVVQPGGSLRLSCAASGFTFRSFGMSWVRQAPGKGPEWVSSISGSGSDTLYADSVKGRFTISRDNSKNTLYLQMNSLRPEDTALYYCTIGGSLSRSSQGTLVTVSS
In the case of B3, the Kd [1] is reported as 190 nM, the “EC50 (M) … Donor #1” value [2] is reported as 5.7e-10 M and the “EC50 (M) … Donor #2” value [2] is reported as 2.8e-09 M.

B4: T017001017 (bispecific antibody)
chain: EVQLVESGGGVVQPGGSLRLSCVASGYVHKINFYGWYRQAPGKEREKVAHISIGDQTDYADSAKGRFTISRDESKNTVYLQMNSLRPEDTAAYYCRALSRIWPYDYWGQGTLVTVSSGGGGSGGGSEVQLVESGGGVVQPGGSLRLSCAASGTTLDYYVIGWFRQAPGKEREGVSCISSSDGYTYYADSVKGRFTISRDNAKNTVYLQMNSLRPEDTALYYCATDPYYSSCHPFFADYEYDYWGQGTLVTVSSGGGGSGGGSEVQLVESGGGVVQPGGSLRLSCAASGFTFRSFGMSWVRQAPGKGPEWVSSISGSGSDTLYADSVKGRFTISRDNSKNTLYLQMNSLRPEDTALYYCTIGGSLSRSSQGTLVTVSS
B4 was tested, and the Kd [1] was 13 nM, the “EC50 (M) … Donor #1” value [2] was 4.5e-11 M and the “EC50 (M) … Donor #2” value [2] was 9.2e-11 M. The “Potency (M) - cyno T cells, KG-1a cell killing” value [3] was 3.9e-11 M and the “Potency (M) - human T cells, KG-1a cell killing” value [4] was 2.1e-10 M.

B5: T017001023 (bispecific antibody)
chain: DVQLVESGGGVVQPGGSLRLSCVASGYVHKINFYGWYRQAPGKEREKVAHISIGDQTDYAESAKGRFTISRDESKNTVYLQMNSLRPEDTAAYYCRALSRIYPYDYWGQGTLVTVSSGGGGSGGGSEVQLVESGGGVVQPGGSLRLSCAASGTTLDYYVIGWFRQAPGKEREGVSCISSSDGYTYYADSVKGRFTISRDNAKNTVYLQMNSLRPEDTALYYCATDPYYSSCHPFFADYEYDYWGQGTLVTVSSGGGGSGGGSEVQLVESGGGVVQPGGSLRLSCAASGFTFRSFGMSWVRQAPGKGPEWVSSISGSGSDTLYADSVKGRFTISRDNSKNTLYLQMNSLRPEDTALYYCTIGGSLSRSSQGTLVTVSS
B5 was tested, and the Kd [1] was 37 nM, the “EC50 (M) … Donor #1” value [2] was 2.4e-11 M and the “EC50 (M) … Donor #2” value [2] was 1.1e-10 M.

B6: T017001020 (bispecific antibody)
chain: EVQLVESGGGVVQPGGSLRLSCVASGYVHKINFYGWYRQAPGKEREKVAHISIGDQTDYAESAKGRFTISRDESKNTVYLQMNSLRPEDTAAYYCRALSRISPYDYWGQGTLVTVSSGGGGSGGGSEVQLVESGGGVVQPGGSLRLSCAASGTTLDYYVIGWFRQAPGKEREGVSCISSSDGYTYYADSVKGRFTISRDNAKNTVYLQMNSLRPEDTALYYCATDPYYSSCHPFFADYEYDYWGQGTLVTVSSGGGGSGGGSEVQLVESGGGVVQPGGSLRLSCAASGFTFRSFGMSWVRQAPGKGPEWVSSISGSGSDTLYADSVKGRFTISRDNSKNTLYLQMNSLRPEDTALYYCTIGGSLSRSSQGTLVTVSS
With B6 the Kd [1] was 550 nM and the “Potency (M) - human T cells, KG-1a cell killing” value [4] was 7.6e-10 M.

B7: T017001024 (bispecific antibody)
chain: DVQLVESGGGVVQPGGSLRLSCVASGYVHKINFYGWYRQAPGKEREKVAHISIGDQTDYAESAKGRFTISRDESKNTVYLQMNSLRPEDTAAYYCRALSRITPYDYWGQGTLVTVSSGGGGSGGGSEVQLVESGGGVVQPGGSLRLSCAASGTTLDYYVIGWFRQAPGKEREGVSCISSSDGYTYYADSVKGRFTISRDNAKNTVYLQMNSLRPEDTALYYCATDPYYSSCHPFFADYEYDYWGQGTLVTVSSGGGGSGGGSEVQLVESGGGVVQPGGSLRLSCAASGFTFRSFGMSWVRQAPGKGPEWVSSISGSGSDTLYADSVKGRFTISRDNSKNTLYLQMNSLRPEDTALYYCTIGGSLSRSSQGTLVTVSS
In the case of B7, the Kd [1] is reported as 2400 nM and the “EC50 (M) … Donor #2” value [2] is reported as 9.8e-10 M.

B8: T017001026 (bispecific antibody)
chain: DVQLVESGGGVVQPGGSLRLSCVASGYVHKINFYGWYRQAPGKEREKVAHISIGDQTDYAESAKGRFTISRDESKNTVYLQMNSLRPEDTAAYYCRALSRIQPYDYWGQGTLVTVSSGGGGSGGGSEVQLVESGGGVVQPGGSLRLSCAASGTTLDYYVIGWFRQAPGKEREGVSCISSSDGYTYYADSVKGRFTISRDNAKNTVYLQMNSLRPEDTALYYCATDPYYSSCHPFFADYEYDYWGQGTLVTVSSGGGGSGGGSEVQLVESGGGVVQPGGSLRLSCAASGFTFRSFGMSWVRQAPGKGPEWVSSISGSGSDTLYADSVKGRFTISRDNSKNTLYLQMNSLRPEDTALYYCTIGGSLSRSSQGTLVTVSS
In the case of B8, the Kd [1] is reported as 3900 nM, the “EC50 (M) … Donor #1” value [2] is reported as 3.4e-10 M and the “EC50 (M) … Donor #2” value [2] is reported as 4.4e-09 M.

B9: T017001025 (bispecific antibody)
chain: DVQLVESGGGVVQPGGSLRLSCVASGYVHKINFYGWYRQAPGKEREKVAHISIGDQTDYAESAKGRFTISRDESKNTVYLQMNSLRPEDTAAYYCRALSRISPYDYWGQGTLVTVSSGGGGSGGGSEVQLVESGGGVVQPGGSLRLSCAASGTTLDYYVIGWFRQAPGKEREGVSCISSSDGYTYYADSVKGRFTISRDNAKNTVYLQMNSLRPEDTALYYCATDPYYSSCHPFFADYEYDYWGQGTLVTVSSGGGGSGGGSEVQLVESGGGVVQPGGSLRLSCAASGFTFRSFGMSWVRQAPGKGPEWVSSISGSGSDTLYADSVKGRFTISRDNSKNTLYLQMNSLRPEDTALYYCTIGGSLSRSSQGTLVTVSS
For B9, the Kd [1] was 780 nM, the “EC50 (M) … Donor #1” value [2] was 6.6e-11 M and the “EC50 (M) … Donor #2” value [2] was 3.4e-10 M.

— patent US20240109965A1 (Ablynx, published 2024)
